Experimental data from PMC2064084 (The Journal of Cell Biology, 2007).

T1: C448Y/E442Q Spastin (human, UniProt Q9UBP0 228-616, E442Q | C448Y)
T1 sequence: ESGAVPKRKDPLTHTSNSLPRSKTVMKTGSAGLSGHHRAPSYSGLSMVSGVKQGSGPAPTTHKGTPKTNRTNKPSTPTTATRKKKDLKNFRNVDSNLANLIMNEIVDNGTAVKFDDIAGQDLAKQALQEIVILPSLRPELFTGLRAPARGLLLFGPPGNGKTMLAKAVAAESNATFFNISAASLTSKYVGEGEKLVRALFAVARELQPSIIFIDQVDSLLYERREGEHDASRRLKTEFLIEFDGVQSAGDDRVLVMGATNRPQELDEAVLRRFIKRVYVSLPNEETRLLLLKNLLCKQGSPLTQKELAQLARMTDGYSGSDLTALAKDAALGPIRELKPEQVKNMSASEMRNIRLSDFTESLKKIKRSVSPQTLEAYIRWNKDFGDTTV

B1: E442Q Spastin (enzyme)
chain: ESGAVPKRKDPLTHTSNSLPRSKTVMKTGSAGLSGHHRAPSYSGLSMVSGVKQGSGPAPTTHKGTPKTNRTNKPSTPTTATRKKKDLKNFRNVDSNLANLIMNEIVDNGTAVKFDDIAGQDLAKQALQEIVILPSLRPELFTGLRAPARGLLLFGPPGNGKTMLAKAVAAESNATFFNISAASLTSKYVGEGEKLVRALFAVARELQPSIIFIDQVDSLLCERREGEHDASRRLKTEFLIEFDGVQSAGDDRVLVMGATNRPQELDEAVLRRFIKRVYVSLPNEETRLLLLKNLLCKQGSPLTQKELAQLARMTDGYSGSDLTALAKDAALGPIRELKPEQVKNMSASEMRNIRLSDFTESLKKIKRSVSPQTLEAYIRWNKDFGDTTV
B2: A457E/E442Q Spastin (enzyme)
chain: ESGAVPKRKDPLTHTSNSLPRSKTVMKTGSAGLSGHHRAPSYSGLSMVSGVKQGSGPAPTTHKGTPKTNRTNKPSTPTTATRKKKDLKNFRNVDSNLANLIMNEIVDNGTAVKFDDIAGQDLAKQALQEIVILPSLRPELFTGLRAPARGLLLFGPPGNGKTMLAKAVAAESNATFFNISAASLTSKYVGEGEKLVRALFAVARELQPSIIFIDQVDSLLCERREGEHDESRRLKTEFLIEFDGVQSAGDDRVLVMGATNRPQELDEAVLRRFIKRVYVSLPNEETRLLLLKNLLCKQGSPLTQKELAQLARMTDGYSGSDLTALAKDAALGPIRELKPEQVKNMSASEMRNIRLSDFTESLKKIKRSVSPQTLEAYIRWNKDFGDTTV
B3: GST–tubulin tail (GST fused to the C-terminal 104 amino acids of murine α-tubulin), ending in Tyr (domain or fragment)
chain: not shown
B4: R451G/E442Q Spastin (enzyme)
chain: ESGAVPKRKDPLTHTSNSLPRSKTVMKTGSAGLSGHHRAPSYSGLSMVSGVKQGSGPAPTTHKGTPKTNRTNKPSTPTTATRKKKDLKNFRNVDSNLANLIMNEIVDNGTAVKFDDIAGQDLAKQALQEIVILPSLRPELFTGLRAPARGLLLFGPPGNGKTMLAKAVAAESNATFFNISAASLTSKYVGEGEKLVRALFAVARELQPSIIFIDQVDSLLCERGEGEHDASRRLKTEFLIEFDGVQSAGDDRVLVMGATNRPQELDEAVLRRFIKRVYVSLPNEETRLLLLKNLLCKQGSPLTQKELAQLARMTDGYSGSDLTALAKDAALGPIRELKPEQVKNMSASEMRNIRLSDFTESLKKIKRSVSPQTLEAYIRWNKDFGDTTV

Key:
AUC = target: the molecule itself; experiment: AUC
SEC = target: the molecule itself; experiment: SEC
C448Y/E442Q Spastin = target: T1, C448Y/E442Q Spastin; experiment: pull-down

Binder | binding result (SEC) | also measured
B1 | – | stoichiometry N (AUC): 6
B2 | binds | –
B3 | – | binding result (C448Y/E442Q Spastin): binds
B4 | binds | –
